Reference: the NTF2 design screens of Basanta et al. (2020)

experiment: protease stability score; higher = more stable; yeast display proteolysis, trypsin and chymotrypsin;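 further: relative to predicted unfolded state with 0 unfolded-like and 1 meaning tenfold more protease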

In order of rising protease stability score:
1. SEDEEIMQRLLEELIEALTTGDEDFFTELVDPHARTEFDGKVMHGRERLKYTIELFGVKHVEFRVEVKRISVFDGRILSDTHLELIIDVDGRSVIIRRHTELRVDKVDGRWFNTEHRIE  0.183
2. DEEEKEVHKFMDLLVRALETGDEDEFLSLVDPNARVEIGDKLLHGRESEHWLTEHIKKVAGVERFTHHIHLKDWTIFNGRVRVDGILHLDYGNFHVERRSDFIIYKVDGRWIMRSERVH  0.185
3. SEDEEKASEVARRFVRSLATGDFDTLTRLMDPNYKHVYGDKEFVGREVIREHLEELRLHFEDNKVKHVRVIGDKIDTDMEVRFTVEFDGVRVHHEMKVEFRILKINGRWFLEFTIIR  0.337
4. DELDRLAEDWVKIIIHSLKTGDEDTLHKMADPNYQVEIGDFRFHGRERWIHVLREHREELGVTRVHSELHELHTFNGRAVSVVDLHVNGVTLHVIVFVRKVNGRWQDTSQVYKYE  0.491
5. DEHTHEIEHMLRHFLETLETGDEERYDRLADPHTRIDIGDKHLHGREKAQKLWRHWWKRFDHIHHLHIHHLEAVDGVNHVELREDIRVDGRRVIIRSLLILVVIDGRLREVRVEER  0.496
6. EEDSEMAREISESILRMIKTGDERHFMRLLDPHVKIDINGREHHGRHAATHQLRETSEKFGFDRITVRLESVHVQGEYVNINGRVEQGDFHLTLHFHFRKIDGRWVMDSVHIV  0.559
7. DEEDRHAEEVFRTLIHAWHTGDEDTLKRMLDPDVKILIGDKDHHGRDFFAREMHEISKHLRVHFELHELDVINGRVHVHGTLVITINGREIRITVHIHVLIVDGRVKLQKWIKV  0.583
8. TDLEELFDYAIDLLRSLLLTGDEHMSVRLADPNTKLEVNGRYIHGREKFREWFRWFLEHLRFDHLHIHSVETQGDYAFMDSRVHLRYGDKVIEFITHQIVLKFDGRWYLHSMEIR  0.587
9. SDEEIAAKYMEDELQKSLKTGDEQKFRHLADPNVRSDINGVELIGWELIIKYWREIRSKVEDVRLKRVDVQGDKIHLHGLVDVEINVNGVRTREHLESHFVIVKIDGRWYVHSIEIR  0.659
10. DEWDEHLEHVAKLIIELLLTGDEETLSRLADPHTRLEWNGRETHGRENMQETLIKILKEIWIHDIRIRHVRTQGDKAHVEGEQDGIINGVRRILDVRILIVVFNGRLRSLRFQID  0.693
11. DEDERLSRELLKRWMTSIMTGDETSSQHLADPHDRIDINGREFHGRELATWVAHHLRIDSIQERHQEIQGEKLIVLGETDYIVDGVKQIRRTEYILRKFNGRWFFESIIFR  0.9
12. DEEEKHVRKMVEIESHSHQTGDFDSIRELADPHMRIDINGVELHGWKEFERFLREIRVHHIKIKSVRDINGVAVVDTIVHGHIDGRTDTFDAHVVILKINGQWRIKSIKIE  0.918
13. SERKQASEDAFRIYIETFKTGDERTMRENMDPDVRVHIGEFNHHGMEESAHLLHEYWKRFGFRIRHVHIEDVKNVGNKVILHTLSEIEINGREEHVDTELIILKIDGKWLVEEVRVK  0.92
14. SQDKETSDEAFRIWVESYETGNEHLEEHMVDPNARSRVGDKELIGMEHFIKIMEKIKNATLEIRHRSYTEIDGRLRWHTQLYIEYGDKRIEREIIIIVHKVNGRWSIEHFEVR  0.973
15. EEDRNDVEDFLRMFRTALTTGDEHILEHLADPNTRVDINGKEWHGWHHVSELHKKHLEDLGADHVEFRVHDFRIIGNKVHVDSRLIEHQGDKILIINTIIIQLKINGRWVIHELRFR  0.988
16. SEEDEEAERMVRALNHKFRTGDWELSEKLFDPNTKLEIIINGKHIDIHGREMVIRLMEDELRRFDHVDIEIKRVDSQGEKANNDGVLVIKQGDFEVRHRFTLIIHVVNGVIKKISILFH  0.996
17. DEDDEAAQEAVKIVEEVTKTGNWRVLLELLDPHTRVHTEHHELHGMEEYVREVQKMMQDFGVTKVEVRFHEIIIIGEKIHMRVTIHVNGVTLDTEVVSLKYNGRWYLHTLRMK  1
18. DEEDEQLHRFAQLYFEAMVTGDEDLLRHLLDPHVRVHINGRELHGRENMAKWLKDFWDKYKNVQLNLHHIRVIGDKVHMDVEMDVNGREERVHIHVEMIDGVVHSSHHRIE  1.02
19. SEDHLEARETVTEELRARQTGDERRLDELIDPNTRLEINGKEVHGMEQIIEETRRLGVDVVEIRLERHDRFNGVIHVRGRLHYNWNGKSIDHETELIVYKVDGQWIVHSIHVL  1.05
20. DESTSQARKAIEQLIHVEETGDEEMFSTLVDPHVRMDYNGVELHGMEKARNHWNELWKRFKGIKIELKRLEIQGNKVRVQMTYIVGDKNKYVEIHITKIDGQWVITEIHVD  1.12
21. SEEEENAHKAMRFLEEVMKTGDEKSWLDLFDPDARIIIGDKHHIGWEHIHELMRRIDHIHDFHVHDVRSQGDKVFVDIKIDGIINGRRYRTRIEVIVRKFDGKWHIDHIQHN  1.2
22. SEEEDLHRHIMRLFLEWVLTGDEEDLYHFADPHTQFRYGDYELHGMEKIVEEILRFTHELRITHFTIHQMDVFNGKAESDVEWHKDVNGQEVRFRLKLILIVINGRTKSIEIRHK  1.23
23. DEEKHILDRYWEEWLHALITGDEERLMELIDPNAKHVFNGKELHGRESLTELLRRLGMEIKDIRDHDLKVIGDKLHIDTRIDGIINGRQTTIRMHIIATKIDGKWVHTKLEVR  1.23
24. DQEEQDIRRAIRLYLELLLTGDWKTLEKLIDPNVRLNFNGQEYHGMRDVLRLLKEILEELGIKHVHLHDERIQGDKVKVDTRVEINGKHSEVILVAEKINGKWVVHHLEHNHK  1.24
25. DEDEKEAHELSRTIIESWLTGDEDSLSEMMDPHTRSDVNGRISHGREEASRVWHEEMRKLGVKHYEIKRVHSRVIDGRLDLHIYSRMHINGVSRSVELIFHIEKVNGRWLIKEVRVHLL  1.25
26. DETREEVYEMAVRILENEITGDWKKLYDLVDPDTRLDINGRHVIGREEMIKLFEWWLKHIRIKEIRLSHVEAVNGKADLKSNVHGTIDGVEHDVRRTIHIDIVDGRVKRIEVRTR  1.29
27. SEEKKESDKFFEEWVRSAQTGDEDRVREMLDPNARVEIGDKTYVGRELFLRIMVEIRIKDIILKDIRIQGDKLRNDGELLITVDGKEIRVETHIIAEKVDGRWVLSRFVWH  1.35
28. SEDDEYSELFVKTWFEILRTGDEEKIRRMLDPDARSTINGKDLHGRERIEEHLHELFLRLGLSNVKVHLHDYRFIGDKLHLHGKLTINGQEFDTKVDAWKFNGRWFMHQIHLR  1.39
29. DEHDEHYHRLMKVLVDMMATGDWRTIHELMDPDARSDIDGREVHGREEVIRVIKEFFDKFKGARIEIRLRRWDTINGRIDVRVQLDVNFNGRTEQYDTRIHNVVVDGVSEELTVEVK  1.39
30. SEEKEKAEHVVRQFLRVILTGDWERIEELMDPHVRFRVDVDGQTLHNHGRERLIDWYAKVKGLRNNLREIHIFENRAELHFESTIGDKHFKERIEIHIVDGRFKSVTFQFE  1.42
31. DDLEKIVLRMLNLWLKSILTGDEEFEEHYADPNVRYEINGVELHGRERFSQWLTDLRRKFKNIRIEIRVHHTEAQGDKMRSEEELIIDFEGRQINREVRIDMKVIDGRIKEVKVHII  1.42
32. TELEEEAKKYQDFFVTIVVTGDEDSFINLFDPNVRSVVNGRKLHGMHKWKRYIEELLRKIKNLRFELTIHEVNVIDGKVESHMELILRINGVEQRHDLNVHAEKFDGRWLYREIEIR  1.46
33. DEEKRHSDEIIEEWVRSLITGDEKRIRELHDPTTLLNNENEKYHGMEIATELRRRIRENMGIKHSEVRVHDIEWQGDKITIYGRLILRFNGKEVEHELLIVATKINGRWVLRSMRIE  1.48
34. DEDEDHVRDMIEVFVRLMITGDEDTFKNLADPHVQFHFENVKLHGRHALLEWLRRLNREFKNIRVQILVHHVEVQGEKATVHSHIVVHVGDKTEHYDTELHIIVIDGRIKTVIIKRK  1.5
35. DEDRHYIEQALEILEHNIQTGNWEIIARLLDPNMRLHIGDKDIHGREESADIIRHWIHRFPNLRVRIDHFEIYGNKVIFRGTMDFDGQRHDISIFSHKVNGRWLIKSIEYR  1.59
36. HEYEEEVTKAIEVLLHLLMTGDFDQMLHLADPNYRVDINGQEYIGREWFEVIRDKFKNVKIKDMHIDHVIFIGDKVIIHSREHRQQGDKERTFTVVLYSRKINGQWVHTSVKFS  1.59
37. SEDEKEMKQALEHWLELLTTGNEEENEKLADPDVRLNFNGKEFHGWKLYREFLSRIKNATIRIREVRVVNGKVTVISELRIGDKVFEVQIHLKKVNGKWYVEEEHIH  1.61
38. DEIEERTKELMKIDLELLETGDEETLLHLLDPHVKIITWINGRRVQRVGRHIWVHWLRYLGIDHLHVDDVEVQGDKITFDMTIEINGRTHKAVLRSQVVDGKITSLEIEVR  1.63
39. DERKKATKETMRLEEEARNTGDEHELTKLVDPHVRLVIDGVNFIGWEVFLKRFNDLGADHVELRIDEIELIGDKVIVHGTLRIRVGDKETQEKVELYWLKINGRWVLEQVNHK  1.71
40. SEEREKAERISRTLFFNFFTGDEDDWNKRADPTDRFIIGDKELVGMEEISKFLKHLRVHHEQLSDLRINLQGDKLHSHLDGYVDIEFNGRRRRTRVIIIIVVFKVNGRWTIEQFEVEFH  1.73
41. DETTELTQTVSQVFLDIWRTGDEDALRHLADPNTRLEVGEKTFHGRERVTEYVSRFKNVTVHLRRVTVQGNKVHIDSEMDFNGRKSDLHVELLVVDGRLKEIHVDIRWL  1.84
42. SEDHEFVRFIIEQLLHDLFTGDWRRLLKLFDPNAMIEVGDKTLHGMENIYRWHEEHYERLGLSNVEIHILIRKIHIQGDKVHIDGLLRLHFNGRDTEIHVRLHALKIDGKWQLTRVQHD  1.89
43. NEDHDVLNDLMTDHVHAVLTGDFRTLIHNIDPHTRVDINGVHFHGREEAVHLFEDLANRVPGVKLDVEEWRTYGDKLRSNVRWHFDGRTIDIHLVFLKINGKWLLESVKIN  1.9
44. DHHEHDTKILMDLWLHALTTGDWRLLAELADPHVRFEVEFDGRRIEYHGRHSFEEHMKRLVDKIKNLTLTIHDVRVIGDFVHIEGETTWDGRTSSIHIHLKVINGRVKHIKVEER  1.92
45. SEEERTAEKLMRDWLKNWMTGNEEIIKELADPNVKLLVGDKEMHGMEELSRFLKELRIHDSDVRDIRLKSINGVLHIESDGRLKGEFNGQHIDTRTVVRLDVHKFDGRWHLKSIEVEIR  1.95
46. DEEEETMERALRETLHFINTGDEDSMEELMDPNWRIHIDGKDLHGWKFFQHLLRRADHIHIHIELKDVRRVGDKLELDGRLHVIYFIDGQEIHKVVDTHIYMIKINGRWHHKFIEIK  2.15
47. DEHEEALEEFLTEMIENIKTGDWHSELKLMDPHVRILFDGVIFHGREFFFQWLRHLLQRADHVNFTIDDKKYQGDKMVIETTFHLIINGQRIERYTVLLARKVNGRWYIEEVRLH  2.33
48. SEEEKETEHVLRLFLEIFHTGDWKTLHELFDPHVRLNVGDKHWIGRENVVEQIRHFLERFKNARFHIHRIHIVGDFNDVRTEITINGRTHDTRLWLQVIDGRIESMEIKMN  2.44
49. DEENEHAKHLMRELIKSIITGDEEMIDHLADPNMRLRVGDKEWHGREEIQHWLRRLVEEARIHDVELTSVRTIGDKVILDTRVDIKQGDKRKIITLIIIVQKFDGRWIIEEIRIH  2.57
50. SEDHRDAEKFLRLFMELFKTGDFEELFRLVDPNVRLEINGREFHGRELVKKLLKEEHDRYKNATSEVEIDRIHIQGDWVHADIELRLDYNGKTLRWETHLVMLKVDGRWFVRSYSER  2.6
